Results as given in patent US20040014055A1.

Tests used:
[1] = molecular target: HER1/2 VA (Homo sapiens (Human)) (UniProt P00533)
[2] = molecular target: chimera EGF-R/ERBB2 (HER 1/2) (Homo sapiens (Human)) (UniProt P00533)

Question: With Erbin of the MDCK cells as the substance, how does the basolateral localisation of the receptor on MDCK transfectants (biotinylation of the cell surface, autoradiography) (% basolateral) [1] read?
Answer: 53

Question: And the basolateral localisation of the receptor on MDCK transfectants (biotinylation of the cell surface, autoradiography) (% basolateral) [2]?
Answer: 83
